Measured values taken from paper PMC2568859, “Hybrids of the bHLH and bZIP Protein Motifs Display Different DNA-Binding Activities In Vivo vs. In Vitro”.

Columns and labels:
ArntbHLH-C/EBP [1] = molecular target: T1, ArntbHLH-C/EBP (Homo sapiens (Arnt isoform variant 3) / …, UniProt P27540-2 65-130+=RIR+P05554:317-345, internal_change); assay: fluorescence anisotropy; Buffer C (no additives, 1.0 ug/mL poly dI-dC); single isotherm, plateau not reached; Hill ~2; Buffer B: 100 mM Tris pH 7.4, 150 mM NaCl, 1 mM EDTA, 200 mM guanidine-HCl, 20% glycerol, 0.1 mg/mL acetylated BSA, 100 uM bp calf thymus DNA; 1 nM duplex; overnight 4 C then 22 C. Buffer C: 100 mM Tris pH 7.4, 150 mM NaCl, 1 mM EDTA, 1.0 ug/mL poly dI-dC. Buffer A: phosphate pH 7.4, 150 mM NaCl, …; details: protein: recombinant; (pET-28A(+), TALON purified); chain copies: 2; label: 5' 6-FAM on one strand; 24-mer duplex
ArntbHLH [2] = molecular target: T2, ArntbHLH (Homo sapiens (isoform variant 3), UniProt P27540-2 65-130); assay: as above; details: protein: recombinant; chain copies: 2; label: 5' 6-FAM on one strand; 24-mer duplex
ArntbHLH-C/EBP [3] = molecular target: T1, ArntbHLH-C/EBP; assay: fluorescence anisotropy; up to 1 uM monomeric protein; data not shown; Buffer B: 100 mM Tris pH 7.4, 150 mM NaCl, 1 mM EDTA, 200 mM guanidine-HCl, 20% glycerol, 0.1 mg/mL acetylated BSA, 100 uM bp calf thymus DNA; 1 nM duplex; overnight 4 C then 22 C. Buffer C: 100 mM Tris pH 7.4, 150 mM NaCl, 1 mM EDTA, 1.0 ug/mL poly dI-dC. Buffer A: phosphate pH 7.4, 150 mM NaCl, 2.7 mM KCl, 1 mM EDTA, 800 mM urea, 20% glycerol, …; details: protein: recombinant; (pET-28A(+), TALON purified); chain copies: 2; label: 5' 6-FAM on one strand; 24-mer duplex
ArntbHLH [4] = molecular target: T2, ArntbHLH; assay: as above; details: protein: recombinant; chain copies: 2; label: 5' 6-FAM on one strand; 24-mer duplex

T1 sequence (P27540 other isoform, or with tags, fused parts or gaps): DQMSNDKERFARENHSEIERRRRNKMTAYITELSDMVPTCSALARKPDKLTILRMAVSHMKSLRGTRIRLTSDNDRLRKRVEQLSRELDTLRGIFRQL
T2 sequence (P27540 other isoform, or with tags, fused parts or gaps): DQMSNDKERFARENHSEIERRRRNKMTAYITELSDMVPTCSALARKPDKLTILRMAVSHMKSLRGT

Binder | Kd (ArntbHLH-C/EBP [1]) | Kd (ArntbHLH [2]) | binding result (ArntbHLH-C/EBP [3]) | binding result (ArntbHLH [4])
E-box 24-mer duplex (dsDNA) DNA 1: TGCAGGAATCACGTGATGAAGGTT DNA 2: AACCTTCATCACGTGATTCCTGCA | ~350 nM | ~350 nM |  | 
nonspecific 24-mer duplex (dsDNA) DNA 1: TGCAGGAATTCCAAGGTGAAGGTT DNA 2: AACCTTCACCTTGGAATTCCTGCA |  |  | no binding | no binding
